# Test results published in patent publication US20260209362A1 (VIB VZW, published 2026).
# Where a chain is given by its changes, count along the chain named.
# T1: biotinylated recombinant human IL-12Rβ2 (human, UniProt Q99665 24-622, random biotinylated)
# T1 construct: Recombinant protein produced in-house, biotinylated; also called hIL-12RB2; human IL-12RB2
# T1 sequence: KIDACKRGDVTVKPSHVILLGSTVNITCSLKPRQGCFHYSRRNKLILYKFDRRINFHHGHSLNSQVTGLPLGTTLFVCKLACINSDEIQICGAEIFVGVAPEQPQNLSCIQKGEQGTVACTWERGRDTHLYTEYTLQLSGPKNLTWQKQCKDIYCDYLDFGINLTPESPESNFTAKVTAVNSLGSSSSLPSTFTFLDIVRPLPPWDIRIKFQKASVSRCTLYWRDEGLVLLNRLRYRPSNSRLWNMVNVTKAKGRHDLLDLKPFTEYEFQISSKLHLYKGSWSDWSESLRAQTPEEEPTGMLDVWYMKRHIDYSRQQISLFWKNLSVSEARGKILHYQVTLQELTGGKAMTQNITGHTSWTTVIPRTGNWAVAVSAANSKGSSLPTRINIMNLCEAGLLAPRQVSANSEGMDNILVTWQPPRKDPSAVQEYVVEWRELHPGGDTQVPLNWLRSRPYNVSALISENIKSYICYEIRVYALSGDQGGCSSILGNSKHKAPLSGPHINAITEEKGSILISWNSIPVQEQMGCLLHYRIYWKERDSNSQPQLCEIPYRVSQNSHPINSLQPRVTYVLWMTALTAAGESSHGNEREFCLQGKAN
# T2: mouse IL-12Rβ2 expressed on cells (mouse, UniProt P97378 24-874)
# T2 construct: HEK293T cells, stably transduced (cDNA NM_008354); also called mIL-12RB2
# T2 sequence: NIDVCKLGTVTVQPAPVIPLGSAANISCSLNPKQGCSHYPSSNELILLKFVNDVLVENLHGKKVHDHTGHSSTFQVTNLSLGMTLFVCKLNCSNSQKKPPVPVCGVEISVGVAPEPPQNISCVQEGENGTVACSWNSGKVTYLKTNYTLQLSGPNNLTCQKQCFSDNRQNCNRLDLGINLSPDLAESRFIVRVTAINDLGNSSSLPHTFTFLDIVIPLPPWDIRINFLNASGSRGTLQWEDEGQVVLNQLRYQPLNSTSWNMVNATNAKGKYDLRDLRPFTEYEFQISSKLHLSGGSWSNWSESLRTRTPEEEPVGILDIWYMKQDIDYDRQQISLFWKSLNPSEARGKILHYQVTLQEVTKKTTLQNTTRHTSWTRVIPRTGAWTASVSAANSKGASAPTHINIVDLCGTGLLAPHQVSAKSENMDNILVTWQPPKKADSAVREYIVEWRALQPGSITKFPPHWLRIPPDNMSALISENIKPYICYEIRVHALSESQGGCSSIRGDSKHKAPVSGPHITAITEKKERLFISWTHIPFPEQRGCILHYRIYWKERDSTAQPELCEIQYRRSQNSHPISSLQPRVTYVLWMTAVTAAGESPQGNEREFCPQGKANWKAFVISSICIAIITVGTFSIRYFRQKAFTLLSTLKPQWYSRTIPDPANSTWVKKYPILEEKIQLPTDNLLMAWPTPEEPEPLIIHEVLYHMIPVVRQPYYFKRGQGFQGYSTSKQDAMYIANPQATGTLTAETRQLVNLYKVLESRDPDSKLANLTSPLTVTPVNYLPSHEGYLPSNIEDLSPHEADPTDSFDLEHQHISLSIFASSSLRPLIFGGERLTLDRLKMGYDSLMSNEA
# T3: biotinylated recombinant mouse IL-12Rβ2 (mouse, UniProt P97378 24-637, random biotinylated)
# T3 construct: Recombinant protein produced in-house, biotinylated; also called mIL-12RB2; mouse IL-12RB2
# T3 sequence: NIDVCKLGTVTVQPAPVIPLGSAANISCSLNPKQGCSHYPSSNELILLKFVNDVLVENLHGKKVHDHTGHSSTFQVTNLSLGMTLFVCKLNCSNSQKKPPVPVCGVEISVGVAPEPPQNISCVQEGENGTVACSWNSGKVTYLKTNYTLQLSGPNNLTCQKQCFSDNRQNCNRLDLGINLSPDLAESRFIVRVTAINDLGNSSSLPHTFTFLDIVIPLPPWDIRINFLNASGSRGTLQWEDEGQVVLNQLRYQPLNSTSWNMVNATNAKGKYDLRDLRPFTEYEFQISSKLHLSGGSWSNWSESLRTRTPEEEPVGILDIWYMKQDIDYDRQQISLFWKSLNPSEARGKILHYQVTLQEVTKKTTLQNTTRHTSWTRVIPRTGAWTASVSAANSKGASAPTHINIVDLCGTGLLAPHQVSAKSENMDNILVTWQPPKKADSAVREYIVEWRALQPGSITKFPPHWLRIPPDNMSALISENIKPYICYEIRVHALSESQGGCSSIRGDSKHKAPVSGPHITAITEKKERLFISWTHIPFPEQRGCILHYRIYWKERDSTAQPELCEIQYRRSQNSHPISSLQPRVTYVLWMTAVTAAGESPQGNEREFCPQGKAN
# B1: anti-IL-12Rβ2 VHH clone 20476 (VHH, not shown: small tags and cut ends)
# VHH: QVQLQESGGGSVQAGGSLRLSCAVFGLSFKDYSMSWFRQAPGKEREFVAGISSGGSWIGDITSYADSVKGRFTISRDNAKNMIYLQMNSLKPDDTGVYYCAAASYGTRYYVGSTANEYTTWGQGTQVTVSS
# notes: tested as periplasmic extract; also called 2CAM20
# B2: anti-IL-12Rβ2 VHH clone 20533 (VHH, not shown: small tags and cut ends)
# VHH: QVQLQESGGGLVQAGGSLTLSCTASGRTFSSYTTGWFRQAPGKEREFVAGISSGGSWIGDITSYADSVKGRFTISRDNAKNMIYLQMNSLKPDDTGVYYCAAASYGTRYYVGSTANEYTTWGQGTQVTVSS
# notes: tested as periplasmic extract; also called 2CAMS26
# B3: anti-IL-12Rβ2 VHH clone 20474 (VHH, not shown: small tags and cut ends)
# VHH: QVQLQESGGGLVQAGGSLRLSCAASGFTFDDYTIGWFRQAPGKEREFVAALSWSAGSTFFTDSVKDRFSISRDNAKNTVLLQMNSLKPEDTAVYYCAAKNPPHRWSDITKSLQYAYWGQGTQVTVSS
# notes: tested as periplasmic extract; also called 2CAM16
# B4: anti-IL-12Rβ2 VHH clone 20479 (VHH, not shown: small tags and cut ends)
# VHH: QVQLQESGGGLVQTGGSLRLSCAASGRTFSNSVMGWFRQAPGKEREFVAALMWSAGSEFYTDSVKGRFSISGDGAKNTVYLQMNSLKAEDTAVYYCAAKNPPHRWSDIGKSPHYEYWGQGTQVTVSS
# notes: tested as periplasmic extract; also called 2CAM33
# B5: anti-IL-12Rβ2 VHH clone 20484 (VHH, not shown: small tags and cut ends)
# VHH: B4 VHH with T14P
# notes: tested as periplasmic extract; also called 2CAM42
# B6: anti-IL-12Rβ2 VHH clone 20496 (VHH, not shown: small tags and cut ends)
# VHH: B4 VHH with T14A, F29L
# notes: tested as periplasmic extract; also called 2CAM71
# B7: anti-IL-12Rβ2 VHH clone 20483 (VHH, not shown: small tags and cut ends)
# VHH: B4 VHH with T14A, M34I, M52S, T61V, V64F, G72R, G74N, A88P, H113Q, E115A
# notes: tested as periplasmic extract; also called 2CAM41
# B8: anti-IL-12Rβ2 VHH clone 20467 (VHH, not shown: small tags and cut ends)
# VHH: QVQLQESGGGLVQAGGSLRLSCAPSGRTFSTLAMAWFRQAPGKEREVVATISWSGGRTYYADSVKGRFTISRDNAKNTAYLQMNSLRPDDTAVYYCAARGSDYGSYDYWGQGTQVTVSS
# notes: tested as periplasmic extract; also called 2CAM3
# B9: anti-IL-12Rβ2 VHH clone 20486 (VHH, not shown: small tags and cut ends)
# VHH: B8 VHH with Y80F, G100E
# notes: tested as periplasmic extract; also called 2CAM46
# B10: anti-IL-12Rβ2 VHH clone 20489 (VHH, not shown: small tags and cut ends)
# VHH: B8 VHH with A14P, S17P, Y80F, G100E
# notes: tested as periplasmic extract; also called 2CAM50
# B11: anti-IL-12Rβ2 VHH clone 20555 (VHH, not shown: small tags and cut ends)
# VHH: B8 VHH with A35G, D73N, S85N, G100E, S101T, S105A
# notes: tested as periplasmic extract; also called 3CAMS81
# B12: anti-IL-12Rβ2 VHH clone 20512 (VHH, not shown: small tags and cut ends)
# VHH: B8 VHH with A23T, A35G, D62S, G66S, S101T, S105A
# notes: tested as periplasmic extract; also called 3CAM57
# B13: anti-IL-12Rβ2 VHH clone 20477 (VHH, not shown: small tags and cut ends)
# VHH: B8 VHH with L32Y, A35G, P41L, T58I, A61T, S101T, S105A, Y106W, D107E
# notes: tested as periplasmic extract; also called 2CAM27
# B14: anti-IL-12Rβ2 VHH clone 20506 (VHH, not shown: small tags and cut ends)
# VHH: QVQLQESGGGLVQVGGSLRLSCAPSGRTFSTYAMGWFRQALGKEREVVATISWSGGRIYYTDSVKGRFTISRDNAKNTAYLQMNSLRPDDADVYYCATRGTDYGAWEYWGQGTQVTVSS
# notes: tested as periplasmic extract; also called 3CAM6
# B15: anti-IL-12Rβ2 VHH clone 20468 (VHH, not shown: small tags and cut ends)
# VHH: QVQLQESGGGLVQAGGSLRLSCVASGRTFSSYGMGWFRQAPGKEREFVTGISSAGSWIGDITSYADSVKGRFTISRDNAKNILYLQMNSLKPEDTAVYYCAAAYHGSRYYVGSTANEYTTWGQGTQVTVSS
# notes: tested as periplasmic extract; also called 2CAM6
# B16: anti-IL-12Rβ2 VHH clone 20493 (VHH, not shown: small tags and cut ends)
# VHH: B15 VHH with G15E
# notes: tested as periplasmic extract; also called 2CAM62
# B17: anti-IL-12Rβ2 VHH clone 20530 (VHH, not shown: small tags and cut ends)
# VHH: B15 VHH with G16D, V23A, S31N, G33N, F37L
# notes: tested as periplasmic extract; also called 2CAMS7
# B18: anti-IL-12Rβ2 VHH clone 20553 (VHH, not shown: small tags and cut ends)
# VHH: QVQLQESGGGLVQPGGSLRLSCAASGRTFSTYAMGWFRQAPGKEREFVAAISWSGGRTYYADSVKGRFTISRDNAKNTAYLQMSSLIPEDTAVYYCAADPADYTGSYYYQRSYDYWGQGTQVTVSS
# notes: tested as periplasmic extract; also called 3CAMS73
# B19: anti-IL-12Rβ2 VHH clone 20473 (VHH, not shown: small tags and cut ends)
# VHH: QVQLQESGGGLVQAGDSLRLSCAASGRTFSSYTMGWFRQAPGKEREFVARISQDGGSTYYADSMKGRFTVARDNAKNTVYLQMNSLKPEDTAVYYCAADMIKWGLRVGVDSFKYWGQGTQVTVSS
# notes: tested as periplasmic extract; also called 2CAM14
# B20: anti-IL-12Rβ2 VHH clone 3CRH83 (VHH, not shown: small tags and cut ends)
# VHH: QVQLQESGGGLVQAGGSLKLSCAASGNTFSINAMAWYRQAPGQELELVAAISDVGNTIYADSMKGRFTISRGNADNTVYLQMNSLKPEDTATYYCNAGTFYTSPGDSYYRGYDFWGQGTQVTVSS
# notes: tested as periplasmic extract
# B21: anti-IL-12Rβ2 VHH clone 2CRM40 (VHH, not shown: small tags and cut ends)
# VHH: QVQLQESGGGLVQTGGSLRLSCAASGRTYAMAWFRQAPGKEREFAAVIIGGDRTYYANSVKDRFTISRDNAKETVYLQMNNLKPEDTAVYYCAANRRLYNSGRGYSQSEYEYWGQGTQVTVSS
# notes: tested as periplasmic extract; also called 20448
# B22: anti-IL-12Rβ2 VHH clone 2CRM28 (VHH, not shown: small tags and cut ends)
# VHH: QVQLQESGGGLVQPGGSLRLSCAASGRAWNEYNMGWFRQAPGKEREFVALIWWSSGNTYYADSVKGRFTISRDKVKNTVYLQMNSLKPEDTAVYYCAAGPTFNKYEYWGQGTQVTVSS
# notes: tested as periplasmic extract
# Target: T1, biotinylated recombinant human IL-12Rβ2
# Experiment: ELISA, periplasmic extract on biotinylated hIL-12Rβ2, signal over control wells
row,ELISA binding hIL-12RB2/control,Binder
1,0.956 ratio,B1
2,0.994 ratio,B2
3,1.01 ratio,B3
4,1.07 ratio,B4
5,1.01 ratio,B5
6,1.01 ratio,B6
7,1.01 ratio,B7
8,1.04 ratio,B8
9,0.973 ratio,B9
10,0.995 ratio,B10
11,1.06 ratio,B11
12,1.31 ratio,B12
13,1.02 ratio,B13
14,0.97 ratio,B14
15,0.955 ratio,B15
16,1.05 ratio,B16
17,0.847 ratio,B17
18,0.99 ratio,B18
19,0.971 ratio,B19

# Target: T2, mouse IL-12Rβ2 expressed on cells
# Experiment: flow cytometry, P.E. VHH on HEK293T cells stably expressing mIL-12RB2
% cells bound,dMFI,Binder
3.47%,21,B20
32.8%,166,B21
19.5%,100,B22

# Target: T3, biotinylated recombinant mouse IL-12Rβ2
# Experiment: ELISA, periplasmic extract on biotinylated mIL-12Rβ2, signal over control wells
row,ELISA binding mIL-12RB2/control,Binder
1,7.26 ratio,B1
2,3.96 ratio,B2
3,6.43 ratio,B3
4,9.41 ratio,B4
5,4.86 ratio,B5
6,19.5 ratio,B6
7,4.68 ratio,B7
8,14.2 ratio,B8
9,6.85 ratio,B9
10,7.88 ratio,B10
11,9.41 ratio,B11
12,47.4 ratio,B12
13,20.9 ratio,B13
14,19.9 ratio,B14
15,9.24 ratio,B15
16,14.5 ratio,B16
17,3.8 ratio,B17
18,15.2 ratio,B18
19,36.3 ratio,B19
